{"source": "the DeepSol protein solubility set"}
{"assay": "soluble on expression in E. coli; label from the status in PepcDB or PDB records"}
{"sequence": "MGSDKIHHHHHHMALIEVQNLKKYFPVKQGPIDVLLRKPRKFVKAVDGVNFQIDEGKSLGLVGESGSGKTTTGRVILRLEEPTDGKIIFDGRDITKLSKEEMRKLRKEMQIIFQDPMASLNPYMRVGKAIEHALEIHGIGDRSSRKEMVLEMLRRVNLEPAEDIYRRYPRELSGGQRQRVVIARALILKPRLVVADEAVAMLDVSVRSQLLRLLQELRKEFNLTMLFITHDLATTKYVCDEIAVMYLGKIVEIGDFEDIYLNPKHPYTQALISAVPEPSLKKKKKFIPEGETPNPIDVPSGCRFHPRCPYRMDICMKEEPQLKAVEENHKVACHLYN", "soluble on expression in E. coli": "not soluble"}
{"sequence": "ELHPRTGRLVSLSACGRTARRQQPGQEFNHGLVLSREPLRDGRVFTVRIDRKVNSWSGSIEIGVTALDPSVLDFPSSATGLKGGSWVVSGCSVLRDGRSVLEEYGQDLDQLGEGDRVGVERTVAGELRLWVNGRDCGVAATGLPPRVWAVVDLYGKCTQITVL", "soluble on expression in E. coli": "soluble"}
{"sequence": "MGSDKIHHHHHHMSYLTSSRCKLFYEDTAEQNPSLKDKPAILFVNGWAISSRYWRPTIDLLRQDFRCVTYDQSGTGKTSIDGCQPDLTIGGFADEAGALIEHLGLDKSRNLHIVGHSMGGMVATELCLRYRDALLSATILACGIFEETPFTSLGLMFLGGLIDVSMNFRNMFRVEPLRTLFIKRAATGHISKEYSDIIIEDFTTSDKAATNAVGHFSIDPEALRTYTRSVIEIASPVLCCVGMADHTIPPEGTITLFEKRKASATSPTRLVQFMHLGHLPMLEDTPCFVEQLKKHFDFAEHFYKKTQPATPLADRVQIQ", "soluble on expression in E. coli": "not soluble"}
{"sequence": "GSDSSLFETYNVELVRKDGQSLGIRIVGYVGTSHTGEASGIYVKSVIPGSAAYHNGHIQVNDKIVAVDGVNIQGFANHDVVEVLRNAGQVVHLTLVRRKTSSSTSPLEPPSDRGTV", "soluble on expression in E. coli": "soluble"}
{"sequence": "MGSDKIHHHHHHMASSIQGQENVMSQSEFDSALPNGIGLAPYLRMKQEGMTENESRIVEWLLKPGNLSCAPAIKDVAEALAVSEAMIVKVSKLLGFSGFRNLRSALEDYFSQSEQVLPSELAFDEAPQDVVNKVFNITLRTIMEGQSIVNVDEIHRAARFFYQARQRDLYGAGGSNAICADVQHKFLRIGVRCQAYPDAHIMMMSASLLQEGDVVLVVTHSGRTSDVKAAVELAKKNGAKIICITHSYHSPIAKLADYIICSPAPETPLLGRNASARILQLTLLDAFFVSVAQLNIEQANINMQKTGAIVDFFSPGALK", "soluble on expression in E. coli": "not soluble"}
{"sequence": "MAAATATAAATSKKMTYEFTIDDDELSEDGKPSTDQATMCNIYKLNLPASASILSKQIAKSQAKRAKKEERHRRRVDLSTVREQDETRVSNSEENSQNASPRPMTASALVPPDEIPDSAPASHCGGGGGRSRIDSAPLGVKLQRQASLPEDQRKAEPMDEEEAELLAMLLGGIERNERKQMTLNGAGNQKIQEAPIVQAPQIPPSPGLPRLPPGAKVSEWLLERSSSPDNVSVISSVLLEDSGLLLNYQNSVGDEEEDVFFDAEEEKPDDVVNCVEHELQGKSLRVFVRDLSHVLGLSLNRNMAAMTQSLVRVEEETTTTDGPAANDSFRTGRSTSVSPRPTNEQFLRNTNGSATFNVKHSSTLARLQKLTPPNNGNTNPILSTTTTPLSSRTTRSVLRVHNVNSVPRPSVQNSTMSKSSVTANQTNRRAFSGVRMPDMNPTLQKSSPPVVTINPLTPSRPASVASSIGARSGVNGTMTASNLEGLQDLIQQQEDALRRAALNDQSTERKMSWQSDQDANNRQSTSVHSSLGSICSSKSIDGAHALSKMGTPTASRIPTPRSRLPTPRGSNLPKRVYVFFGNFGPNSR", "soluble on expression in E. coli": "not soluble"}
{"sequence": "EKVDIDLRDQVSLQHGAQIFTNYCLSCHSASGMRFNRLKDIGLTDEEIKKNLMFTTDNVGDVMHSAMNPKDAAKWFGAAPPDLTLIARSKGADYLYAYMRGFYKDPTRPSGWNNTVFDKVGMPHPLWEQQGVQAVELDAKGQPVMVKDEHGEMKPKLYWESTGLHSRRLPNGKVIQKEYDAYVRDLVNYLVYMGEPAQLQRKR", "soluble on expression in E. coli": "not soluble"}
{"sequence": "MPNNEASEEAKWYVVHTYSGYENKVKANLEKIVENRNLQDYILDIVVPMEEQIEIKDGKKKASLKKVFPGYVLVKMIMNDESWYVVRNTRGVTGFVGPGSKAVPLTDEEIRAMGVEEFAPVLDYEVGDNVRVVSGPLENFIGIVEEINLEKKKVRVSVSMFGRETPVELELHQIQKI", "soluble on expression in E. coli": "soluble"}
{"sequence": "DMNYTYTSIAAIDGNIKTFVAAPRVGYRWQYDGGRELRVFVGAMYQNVQQELSGDLKSLNLPPQLLGLVENLSPDAGFNVSQSADENWNSVLGFQYAFNKDWEILMEAGFGERETLFFSLGRRF", "soluble on expression in E. coli": "not soluble"}
{"sequence": "GMIRLLYLLVKPAGMSDETFRAECLRHYEMSHDVPGLHKYEVRLVAEQPTDTHVPFFDIGHVDAIGECWFKDDAAYATYMASDIRKAWFEHGKTFIGQLKPFRTAPVAGDEPAS", "soluble on expression in E. coli": "soluble"}
{"sequence": "MGSDKIHHHHHHMVSPVVARIIELLPDSCVGFIGKRILNMYLNKYADINVHGMENLKGIDKPIMFIGNHLSNSDGLVLNKVLKDYDVTFVAGVKLKGDAITNLGTYCVKTTEIKPNTADKDGIYRVIDILKSNHNILMFPEGTRSRTGAMIEAKRGPLFIAKLSKAIIVPVGICGSEKLLPINKEGNMSNENFHHAKVEVNIGKPFYFDKRMKEESKKDYEKRALDNAMYKIAELIPENYRGVYSDIKKVL", "soluble on expression in E. coli": "not soluble"}
{"sequence": "MQHYLLDSNQRLNVSFSKDSVAAYYQCFNQPYRKEVPPLMCASLWPKFDLFKKYANSELILTKSAINQTQKIEVDTIYVGHLEDIECRQTRNITRYTMALTLTKNDQHVITVTQTFIKAMKLEHHHHHH", "soluble on expression in E. coli": "soluble"}
{"sequence": "MKFGPIAIEEAEGAVLAHSTTAGEKRFRKAHRLSAEDISVLKRAGIVQVVAAVLSPDDLGEDAAAQRIAESMRFSGIEARPAATGRVNLHAKASGIFTVDAAMIDAINAVDPAITLATLAQHAPVEKGQMVATVKIIPFAVASTLVDTVVKICAGGEILAVNAYQPVRVGVIQTVLPGIKPSVLDKTLRVTEARLARSGGRLTAERRTPHEIAPVAEAAASLARDNDLVVIFGASAMSDFADVVPAAIERAGGTVVRAGMPVDPGNLLVLGTLGGKRIIGAPGCARSPKENGFDWVLDRLVAGLDVTAKDIAGMGVGGLLMEIPTRPQPREPLPAKSRLKVGIVLLAAGRSSRMGGPNKLLALFDGKPLVRRTAERALGSKASGTIVVTGHQRERVRAALSGLDVTFADNPDFANGLSTSLKAGIAYLPEDTAGAMIVLGDMPGVVSGDLDRLIDAFRKAGGNSVVRASHQGKRGNPVLLPRALFPAIAHLEGDTGARHLVEAEGLDVVDVEIGEGASVDVDTREALEGAGGVLQDLEHHHHHH", "soluble on expression in E. coli": "not soluble"}
{"sequence": "DIQMTQSPSSLSASLGERVSLTCRASQDIGSKLYWLQQEPDGTFKRLIYATSSLDSGVPKRFSGSRSGSDYSLTISSLESEDFVDYYCLQYASSPYTFGGGTKLAIKRADAAPTVSIFPPSSEQLTSGGASVVCFLNNFYPKDINVKWKIDGSERQNGVLNSWTDQDSKDSTYSMSSTLTLTKDEYERHNSYTCEATHKTSTSPIVKSFNRNEC", "soluble on expression in E. coli": "soluble"}
{"sequence": "MAKKTSSKGKLPPGPTPLPIIGNMLQIDVKDICKSFTNFSKVYGPVFTVYFGMNPIVVFHGYEAVKEALIDNGEEFSGRGNSPISQRITKGLGIISSNGKRWKEIRRFSLTTLRNFGMGKRSIEDRVQEEAHCLVEELRKTKASPCDPTFILGCAPCNVICSVVFQKRFDYKDQNFLTLMKRFNENFRILNSPWIQVCNNFPLLIDCFPGTHNKVLKNVALTRSYIREKVKEHQASLDVNNPRDFIDCFLIKMEQEKDNQKSEFNIENLVGTVADLFVAGTETTSTTLRYGLLLLLKHPEVTAKVQEEIDHVIGRHRSPCMQDRSHMPYTDAVVHEIQRYSDLVPTGVPHAVTTDTKFRNYLIPKGTTIMALLTSVLHDDKEFPNPNIFDPGHFLDKNGNFKKSDYFMPFSAGKRICAGEGLARMELFLFLTTILQNFNLKSVDDLKNLNTTAVTKGIVSLPPSYQICFIPVHHHH", "soluble on expression in E. coli": "soluble"}
{"sequence": "MAHHHHHHMSLYQRKTILAPMVRVGNVGFRVFCAAQGADVVFTEEIVAAKLARCHREVRVHNDAAGPMIEFVAYELFKNQYKRSVVFTTPARDMANQSGEGAPVVLQLGVSDAAVGVAAALLCCEDVDGIDVNMGCPKKFSVDNGMGAALMRDTSKAASILFALDDALNAPDKLAARGRRVPLSFKIRLLETAEATADMLISIMEKVGANRVHAITLHARTVNQVAEDSPHYDRAAEAVRRLRSHPLFKEMCFVLNGSVRSRDDGAVKMAQFGFDAIMIARHAMWDMSVFSRHVSSAGGRSSLTSEDAEAPLASTSWMDLYRSLLRTHAKYCTPFTYVKYHLTRSIPCIPALRHLMTAVQQEATCYEDLAKIFSLPLEEQESMRGVAAVEMVACVPNREVTLGVVSSNAIKHNDAARSGRVRSEKSAATPAAKKPRGE", "soluble on expression in E. coli": "soluble"}
{"sequence": "MGSDKIHHHHHHMNRTMSSINVLSLPVFNRDASGYDALRRGLIPCFDAFYGTALDLIDDWRDAEKLRVLDLGAGTGLFTAMLLTRHPDAQIHLIDASEKMLEQARKRFDGNPAITYAVADMANTELGGPWDLIISALAIHHLEDIGKKHLFGEIRGALSEGGLFVNVEQVLGHDPEVEARYARTWLQQVRRLGVAEVEIAKAHERMSHDRCSPLENQLQWMRDTGFCEIDCSFKAWRFAVLSGRR", "soluble on expression in E. coli": "not soluble"}
{"sequence": "MVEKELEEKVYKSIIKTIKDTPLEEFYTSGHRTCQGCESALVMRFLAKAAGPRTIVIGATGCMYVANTTYYTTSWIVPWVHTQLGGTGAAALGTAAALRALMRKGKIKQEPINVIAFCGDLGCADMGLSGVSNAMTYDYNLLIILYDNESSANTDIQETSMTPFGAQTSFSRPGKQRRIMKKRWKKSVVPMIIAGHRNVRYAATMTPAYPLDSMNKIRKALTIGGPTFIHSLDPCPKGWDYDPKFSHELGVLAVETGLWPLYEYIDGEIVYNEPTKSIVEGRMKRKPVKEYLEKQGRFSHFTEEDIEYVQRMVDEMYEEWEIPGVMPIKSINAKISDK", "soluble on expression in E. coli": "not soluble"}
{"sequence": "MGSDKIHHHHHHMKETVYFGTYTRRTSQGIYKADFDTETGQLSNLELFAAEPSPTYLAFDQHQHLYTVGSQDDKGGIAAYQTDGTVLNHVVEEGAPHCYVAVDEKRDLVYAANYHKGQVLVYKRQEDGSLLLSDMDQHSGQGPHENQASPHVHYTDLTPDHYLVTCDLGTDQVITYDLDQEGKLSKLYTYHSKPGAGSRHIIFHNHYKIAYLICELNSTIEVLIYDGVGEFERMQVISTLPEAYEGFNGTAAIHLSKDGKYLYASNRGHDSIAVYTILADGSLELLEIVPTHGQTPRDFDLTPDQKFLIVVHQDSDNATVFKRNCDNGRLAELSNDFHVPEAVCIRFAP", "soluble on expression in E. coli": "not soluble"}
{"sequence": "MSNFSEGEIFIANIEKKSLECRENDEIVVLKICELCNIIYPIFNKIFGNGFVGDTLKKDLKNSSSQVQRAIEKFPEETKYVSMLYSYNINKYENMEKLKRDLDNGIISFLWMKRTLEFIITFLEKCYITCSETKLSICAQEAYNEVLKKYHGFITSKIVKLCLKLSPTKDILTKKLGFQTHQQASTVLQKCLSITKPLVRDISVTIEKFNCDFEEKI", "soluble on expression in E. coli": "not soluble"}
{"sequence": "MKPRESMVRLKMFQVRGKRREIAQLEMMIAEFERMVLELEAQIVHEECKSGNSDVHHFAYSALARAARQRRDNLINSIRDLQLQKTNAEIALHEVTTELQRAQLLEARENGGVAGEKDIFMQSRSMTG", "soluble on expression in E. coli": "not soluble"}
